The text below walks through data of patent US20180009892A1 (EUREKA THERAPEUTICS, published 2018).

As usually defined, the IC50 is the point on the concentration scale where inhibition reaches its midpoint. A lower IC50 goes with greater potency in that assay. As a reminder, the koff is the rate constant with which the complex falls apart. One may read the kon as the rate constant with which the complex forms. Read a low kon as slower complex formation.

For assay [1], the target named is T1, human ROR1 extracellular domain (ECD) protein (human, UniProt Q01973 30-406).
T1 construct: also called hROR1-ECD; human ROR1-ECD
The experiment in a line: competitive phage ELISA: soluble ROR1 against ROR1-coated plate. As for the experimental part: Purified phage antibodies were first diluted serially in PBST buffer, and tested for binding to a ROR1-coated plate. The dilution that gave 50-80% saturating signal was used in the solution binding assay in which phage were first incubated with increasing concentration of ROR1 for one to two hours, and then transferred to a ROR1-coated plate for 10-15 minutes to capture the unbound phage.
A general note: In an ELISA, binding on a coated surface is turned into a signal by an enzyme label.

The next assay concerns the target T2, human ROR2-ECD (human, UniProt Q01974 34-403).
T2 construct: extracellular domain; also called hROR2
Briefly: protein ELISA, phage.

The target of assay [2] is T3, ROR1 extracellular domain Fc-fusion, dimer (human, UniProt Q01973 30-406).
T3 construct: also called ROR1 dimer; hROR1 dimeric ECD-Fc fusion protein; not shown: Fc part
The experiment in a line: SPR, immobilised ROR1 dimer, antibody injected, 1:1 model. As for the experimental part: (§1) The binding affinities of ROR1 extracellular domain dimer and monomer for anti-ROR1 antibodies were determined by surface plasmon resonance (SPR). ROR1 extracellular domain Fc-fusion, “dimer,” and ROR1 extracellular domain Fc fusion:Fc heterodimer, “monomer,” are the dimer and monomeric forms of ROR1 used for affinity analysis, respectively. Briefly, ROR1 dimer and monomer were directly immobilized to a CM4 chip using an amine coupling kit and 100 mM ethylenediamine in 100 mM Sodium Borate buffer, pH 8.0 as the blocking reagent. Approximately 100-150 RU of ROR1 dimer and monomer were immobilized on separate flow cells and an un-derivatized flow cell was used as a reference control. […] Dissociation was followed for 180 seconds. The association constant, dissociation constant, and affinity of each anti-ROR1 antibody was calculated using the Biacore T200 Evaluation Software 1:1 binding model.
(§2) Sensorgrams were normalized to 100 RU using the “binding stability point” at the end of the association phase but before the dissociation phase.
In general terms: In SPR one partner is held on a chip, and binding of the other changes the refractive index at the surface.

Assay [3] deals with T4, ROR1 extracellular domain Fc fusion:Fc heterodimer, monomer (human).
T4 construct: Heterodimer of one ROR1 ECD-Fc chain and one Fc chain; also called ROR1 monomer; hROR1 monomeric ECD-Fc fusion protein; not shown: Fc part; Fc alone
Briefly: SPR, immobilised ROR1 monomer, antibody injected, 1:1 model. On the procedure: as §1, §2

Assay [4] concerns the target T3, ROR1 extracellular domain Fc-fusion, …. Briefly: SPR, immobilised ROR1 dimer, antibody injected, 1:1 model; apparent affinity. As for the experimental part: as §1, §2

T2 sequence (Q01974 34-403): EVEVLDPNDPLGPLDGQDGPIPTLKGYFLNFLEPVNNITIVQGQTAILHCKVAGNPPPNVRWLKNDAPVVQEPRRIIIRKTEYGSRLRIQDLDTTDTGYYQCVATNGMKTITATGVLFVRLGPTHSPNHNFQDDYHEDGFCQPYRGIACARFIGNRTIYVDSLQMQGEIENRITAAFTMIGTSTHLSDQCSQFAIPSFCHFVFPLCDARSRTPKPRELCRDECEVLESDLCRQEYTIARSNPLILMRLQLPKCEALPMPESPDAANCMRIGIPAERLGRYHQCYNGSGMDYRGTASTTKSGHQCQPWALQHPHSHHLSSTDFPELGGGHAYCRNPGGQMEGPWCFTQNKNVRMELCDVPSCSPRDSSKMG
T3 sequence (Q01973 30-406): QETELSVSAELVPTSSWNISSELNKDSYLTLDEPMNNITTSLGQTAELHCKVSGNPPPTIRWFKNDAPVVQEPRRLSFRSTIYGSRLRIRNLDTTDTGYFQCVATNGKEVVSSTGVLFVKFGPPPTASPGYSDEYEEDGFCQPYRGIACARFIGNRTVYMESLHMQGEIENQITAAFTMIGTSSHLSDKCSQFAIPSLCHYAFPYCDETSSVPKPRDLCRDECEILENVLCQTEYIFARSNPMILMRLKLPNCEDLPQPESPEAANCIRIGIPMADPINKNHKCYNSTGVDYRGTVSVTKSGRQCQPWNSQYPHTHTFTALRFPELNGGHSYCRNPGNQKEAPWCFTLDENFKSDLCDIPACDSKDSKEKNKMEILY
T4 sequence (Q01973 30-406, one chain of several): as the sequence (Q01973 30-406) above
T1 sequence (Q01973 30-406 limits assumed): as the sequence (Q01973 30-406) above

B1: P601-4 (scFv, V domains shown)
VH: EVQLVQSGPGLVKPSGTLSLTCAVSGGSISSSNWWSWVRQPPGKGLEWIGEIYHSGSTNYNPSLKSRVTISVDKSKNQFSLKLGSVTAADTATYYCARDLWLGEWDLWGQGTLVTVSS
VL: QSVLTQPPSASGAPGQRVTISCSGGISNVGTNGVNWYQHLPGTAPKLLVDAMNQRPSGVPDRFSGSRSGTSGSLAITGLRSEDEADYYCATWDDSLSGVLFGGGTKLTVLG
In assay [1], B1 came in with an IC50 of 0.93 nM. Besides, the binding result with human ROR2-ECD is given as “no binding”.

B2: P601-65 (scFv, V domains shown)
VH: QVQLQQSGPGLVKPSQTLSLTCAISGDSVSSNSATWNWIRQSPSRGLEWLGRTYYRSKWYNDYAVSVKSRIIINPDTSKNQFSLQLNSVTPEDTAVYYCARGVRAFDIWGQGTTVTVSS
VL: QSVLTQPPSVSGTPGQRVTIFCSGGSNNIGRSSVYWYRQAAGTAPKLLIYKTDQRPSGVPDRFAASKSGASASLAISGLRSEDEADYHCATWDDSLSAVVFGGGTKLTVL
B2 yielded an IC50 in assay [1] of 4.23 nM. Also, the binding result with human ROR2-ECD is reported as “no binding”.

B3: P601-50 (scFv, V domains shown)
VH: QVQLQQSGAEVKKPGASVKVSCKASGYTFSRYYIHWVRRAPGQGLEWMGLINPGGGSTNYAQKFQGRVTMTRDTSTNTVYLELSSLRSDDTAVYYCARDYGTIDARRFDFWGQGTLVTVSS
VL: QSALTQPPSASGTPGQRVTISCPGSSSNIGSNYVYWYQQLPGTAPKLLIYRNNQRPSGVPDRFSGSKSGTSATLGITGLQTGDEADYYCGTWDSSLSAYVFGTGTKVTVL
Turning to B3, the IC50 in assay [1] stood at 24.1 nM. Also, the binding result with human ROR2-ECD is on record as “no binding”.

B4: Antibody 601-100 (antibody, V domains shown)
VH: EVQLVQSGGGVVQPGGPLRLSCAASGFTFSSYSMNWVRQAPGKGLEWVSSISSSSSYIYYADSVKGRFTISRDNAKNSLYLQMNSLRAEDTAVYYCARGLGGWTHDAFDIWGQGTMVTVSS
VL: QSALTQPASVSGSPGQSITISCTGTSRDVGGYDYVSWYQQYPGNAPKLMIYDVSRRPSGVSHRFSASKSGNTASLTISGLQTEDEADYYCSSYTSSSTRVFGGGTKVTVL
In assay [2], B4 returned a koff of 0.0017 s⁻¹ and a kon of 440000 M⁻¹ s⁻¹. In assay [3], this molecule registered a Kd of 8.2 nM, a koff of 0.0028 s⁻¹ and a kon of 350000 M⁻¹ s⁻¹. In assay [4], the Kd is 3.9 nM.

B5: P601-102 (scFv, V domains shown)
VH: QMQLVQSGGDLVQPGGSLRLSCAASGFTFSSYSMNWVRQAPGKGLEWVSSISSSSSYIYYADSVKGRFTISRDNAKNSLYLQMNSLRAEDTAVYYCARGLGGWTHDAFDIWGQGTTVTVSS
VL: QSALTQPASVSGSPGQSITISCTGTSSDVGGYNYVSWYQQHPGKAPKLMIYDVSKRPSGVSNRFSGSKSGNTASLTISGLQAEDEADYYCSSYTSSSTSVVFGGGTKLTVL
Regarding B5, in assay [1], the IC50 came out at 10.2 nM. Besides, the binding result with human ROR2-ECD is on record as “no binding”.

B6: P601-100 (scFv, V domains shown)
VH: EVQLVQSGGGVVQPGGPLRLSCAASGFTFSSYSMNWVRQAPGKGLEWVSSISSSSSYIYYADSVKGRFTISRDNAKNSLYLQMNSLRAEDTAVYYCARGLGGWTHDAFDIWGQGTMVTVSS
VL: QSALTQPASVSGSPGQSITISCTGTSRDVGGYDYVSWYQQYPGNAPKLMIYDVSRRPSGVSHRFSASKSGNTASLTISGLQTEDEADYYCSSYTSSSTRVFGGGTKVTVL
The molecule B6 displayed an IC50 in assay [1] of 5.8 nM. Further, in the assay with human ROR2-ECD, the binding result is given as “no binding”.

B7: Antibody 601-103 (antibody, V domains shown)
VH: EVQLVQSGGDLVQPGGSLRLSCAASGFTFSSYSMNWVRQAPGKGLEWVSSISSSSSYIYYADSVKGRFTISRDNAKNSLYLQMNSLRAEDTAVYYCARGLGGWTHDAFDIWGQGTTVTVSS
VL: QSVLTQPASVSGSPGQSITISCTGTTSDVGGYNYVSWYQQHPGKAPKLMIYDVSKRPSGVSNRFSGSKSGNTASLTISGLQAEDEADYYCSSYTSSSTDVFGTGTKLTVL
As to B7, the koff stood at 0.0035 s⁻¹ in assay [2] and 0.005 s⁻¹ in assay [3]. For the same molecule, the kon in assay [2] is 170000 M⁻¹ s⁻¹; in assay [3], 120000 M⁻¹ s⁻¹. Further, the Kd is 40.2 nM in assay [3] and 20.7 nM in assay [4].

B8: P601-119 (scFv, V domains shown)
VH: QVQLVQSGGGLVKPGGSLRLSCAASGFTFGTYSMNWVRQAPGKGLEWVSSISSSSSYIYYADSVKGRFTISRDNAKNSLYLQMNSLRAEDTAVYYCARGLGGWTHDAFDIWGQGTTVTVSS
VL: QSALTQPASVSASPGQSITISCTGTSSDVGGYNYVTWYQQHPGKAPKLMIYDVSKRPSGVLDRFSGSKSGNTASLTISGLQAEDEADYFCSSYTSSSTLVFGGGTKLTVLG
Consider B8, for which, in assay [1], the IC50 came out at 17.7 nM. Besides, the binding result in the assay with human ROR2-ECD is listed as “no binding”.

B9: Antibody 601-28 (antibody, V domains shown)
VH: EVQLVQSGGDLVQPGGSLRLSCAASGFTFSSYSMNWVRQAPGKGLEWVSSISSSSSYIYYADSVKGRFTISRDNAKNSLYLQMNSLRAEDTAVYYCARGLGGWTHDAFDIWGQGTTVTVSS
VL: QSALTQPASVSGSPGQSITISCTGTSSDVGGYNYVSWYQQHPGKAPKLMIFDVSNRPSGVSNRFSGSKSGNTASLTISGLQAEDEADYYCSSYTSSSTLFGGGTKLTVL
With B9, in assay [2], the koff is 0.0097 s⁻¹ and the kon worked out at 340000 M⁻¹ s⁻¹. Further, in assay [3], the Kd worked out at 36.4 nM, the koff was determined as 0.012 s⁻¹ and the on-rate (kon) was 320000 M⁻¹ s⁻¹. The Kd in assay [4] is 28.5 nM.

B10: Antibody 601-13 (antibody, V domains shown)
VH: EVQLVQSGAEVKKPGSSVKVSCKASGGTFSTFAINWVRQAPGQGLEWMGGVIPVSGTEDYSQKFQGRLSLTADESTGTAYMELSSLRSDDTAVYYCARDRSGRDWDYFDYWGQGTLVTVSS
VL: DIVMTQSPSSLSASVGDRVTITCQASQDISNYLNWYQQKPGKAPKLLIYDASNLETGVPSRFSGSGSGTDFIFTISSLQPEDIATYYCQQFDNLPYTFGQGTKVEIKR
Consider B10, for which, in assay [2], the koff was found to be 0.00087 s⁻¹ and the kon stood at 1.6e+06 M⁻¹ s⁻¹. In assay [3], this molecule had a Kd of 0.8 nM, a koff of 0.0014 s⁻¹ and a kon of 1.8e+06 M⁻¹ s⁻¹. Further, the Kd in assay [4] is 0.5 nM.

B11: P601-108 (scFv, V domains shown)
VH: QLQLQESGPGLVKPSETLSLTCTVSGGSISSNSYYWGWIRQPPGKGLEWIGSIYYSGSTYYNPSLKSRVTISVDTSKNQFSLKLGSVTAADTAVYYCARHDGTDAFDIWGQGTTVTVSS
VL: QSVVTQPPSVSAAPGQKVTISCSGSSSNIGKNYVSWYQQFPGTAPKLLIYDNNERPSGIPARFSGSKSGTSATLGITGLQTGDEADYYCATFDTSLWAAVFGGGTKLTVL
With B11, the IC50 in assay [1] is 0.76 nM. Also, in the assay with human ROR2-ECD, the binding result is “no binding”.

B12: P601-70 (scFv, V domains shown)
VH: EVQLVQSGAELKKPGSSVRVSCKTSGGSFKTHGISWVRQAPGQGLEWMGWINPNSGGALYVDNFQGRATMTRDTSINTAYMELRSLSSDDTAVYYCARGMADLIDVFDIWGQGTMVTVSS
VL: TQPALTQPASVSGSPGQSITISCTGTSSDFGDYDYVSWYQQHPGKAPKLMIYDVSDRPSGVSNRFSGSKSGNTASLTISGLQAEDEADYFCSSFTTSSTLVFGGGTKLTVL
Consider B12, for which the IC50 in assay [1] was 74 nM. Further, the binding result with human ROR2-ECD is “no binding”.

B13: P601-69 (scFv, V domains shown)
VH: QVQLVQSGAEVKKPGESLKISCKGSGYSFTSYWIGWVRQMPGKGLEWMGIIYPGDSDTRYSPSFQGQVTISADKSISTAYLQWSSLKASDTAMYYCARLSSSSYDAFDIWGQGTMVTVSS
VL: QSALTQPASVSGSPGQSITISCTGTSSDVGGYNYVSWYQQHPGKAPKLMIYDVSNRPSGVSNRFSGSKSGNTASLTISGLQAEDEADYYCSSYTSSSIPWVFGGGTKLTVL
In the case of B13, in assay [1], the IC50 stood at 9.81 nM. Also, the binding result with human ROR2-ECD is given as “no binding”.

B14: P601-9 (scFv, V domains shown)
VH: QLQLQESGPGVVKPSGTLSLTCTVSGGSISRSDGYWGWVRQPPGKGLEWIGSIYDTGTTYYSPSLKSRLIISVDTSKNQFSLTLNSVTAADTAVYYCASMGGLRSSSSDAFHTWGPGTMVTVSS
VL: QSVLTQPPSVSVAPGETARITCGGTNIGSESVHWYQQRPGQAPVLVVYDDTDRPSGIPERFSGSNSGNTATLTISRVEAGDGADYYCQVWDSVSDRYVFGTGTKVTVL
B14: in assay [1], the IC50 amounted to 14.6 nM. Moreover, the binding result with human ROR2-ECD is on record as “no binding”.

B15: P601-128 (scFv, V domains shown)
VH: EVQLVQSGAEVKKPGESLKISCKGSGYSFSRYWIGWVRQMPGKGLEWMGIIYPRDSDTRYSPSFQGQVTISADKSISTAYLQWSSLKASDTAMYYCATPVVTAGAFDIWGQGTMVTVSS
VL: DIQMTQSPSSVSASVGDRVTITCRASQGISSWLAWYQQKPGKAPKLLIYAASSLQSGVPSRFSGSGSGTDFTLTISSLQPEDFATYYCQQANSFPLTFGGGTKVEIK
For B15, the IC50 in assay [1] was found to be 263 nM. The binding result in the assay with human ROR2-ECD was “no binding”.
